Target: IL-1 receptor on human melanoma A375.S2 cells (human (endogenous in A375.S2)) (UniProt P14778)
Chain of UniProt P14778 (P14778 18-569): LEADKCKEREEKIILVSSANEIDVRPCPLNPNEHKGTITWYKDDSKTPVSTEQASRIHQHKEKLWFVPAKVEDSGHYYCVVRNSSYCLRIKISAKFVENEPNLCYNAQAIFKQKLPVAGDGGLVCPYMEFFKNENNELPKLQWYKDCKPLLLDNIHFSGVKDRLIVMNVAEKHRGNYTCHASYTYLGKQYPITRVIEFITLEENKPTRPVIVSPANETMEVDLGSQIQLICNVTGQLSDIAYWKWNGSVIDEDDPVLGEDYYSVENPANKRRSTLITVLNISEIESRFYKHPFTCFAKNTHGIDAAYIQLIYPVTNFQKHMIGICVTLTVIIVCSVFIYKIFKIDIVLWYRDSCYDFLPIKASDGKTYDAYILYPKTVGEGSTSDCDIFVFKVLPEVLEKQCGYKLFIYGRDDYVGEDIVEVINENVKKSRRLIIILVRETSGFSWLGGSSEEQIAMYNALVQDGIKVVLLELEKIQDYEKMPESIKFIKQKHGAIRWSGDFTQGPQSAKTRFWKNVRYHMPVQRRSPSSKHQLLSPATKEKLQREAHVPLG

input giving the 50% level of inhibition of the cytolytic activity of 1 ng/ml (0.06 nM) IL-1β to A375.S2 cells (MTT, 72 h); the pair blocked is IL-1β and the IL-1 receptor: 2 nM
input giving the 100% level of inhibition of the cytolytic activity of 1 ng/ml (0.06 nM) IL-1β to A375.S2 cells (MTT, 72 h); the pair blocked is IL-1β and the IL-1 receptor: 32 nM
Substance: IL-1ra-HSA fusion protein (human serum albumin fused to the carboxyl terminal of human IL-1ra) (from UniProt P02768 25-609)
